From the nanobody polyreactivity screen of Harvey et al. (2022) come the findings set out here.

This data set is described as follows: yeast display, Sf9 membrane polyspecificity reagent, FACS + sequencing; frameworks hold sequencing errors. The method, boiled down: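 Galactose induction of a Saccharomyces cerevisiae BJ5465 synthetic nanobody display library ran 36–48 hours. The cells were then stained for 1 hour at 4 °C with 10% biotinylated, detergent-solubilized Sf9 membrane reagent, pulled down on streptavidin microbeads and FACS-sorted into low and high (top ~1%) gates on expression and reagent-binding fluorescence. Labels for polyreactivity follow the gate of origin.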
As to “QLQLVESGGGLVQAGGSLRLSCAASGRTSRRYAMGWYRQAPGKERELVAAIRGSGGSTYYADSVKGRFTISRDNAKNTVYLQMNSLKPEDTAVYYCAADWSFWSLAYPSAKFYAEFDYWGQGTQVTVSS”, the “polyreactivity (PSR sort gate)” value is recorded as “high polyreactivity”. As for “QLQLVESGGGLVQAGGSLRLSCAASGSIFDQNAMGWYRHAPGKERELVAAISKSGGSTYYADSVKGRFTISRDNAKNTVYLQLNSLKPEDTAVYYCAARYHYPGNWYNYWGQGTQVTVSS”, the entry is “low polyreactivity”; as for “QLQLVESGGGLVQAGGSLRLSCAASGSIFGGYAMGWYRQAPGKERELVAAITGTDTTNYADSVKGRFTISRDNAKNTVYLQMNSLKPEDTAVFYCNADYQPVAAVYNYDYWGQGTQVTVSS”, “low polyreactivity”; as for “QLQLVESGGGLVQAGGSLRLSCAASGSIFHGNVMGRYRHAPGKEMELVAAISSSGGSTYYADSVKGRFTISRDIAKNTVYLQMNSLKPEDNAVYYCAARNRYWGQGTQVTVSS”, “high polyreactivity”. As for “QLQLVESGGGLVQAGGSLRLSCAASGSIFLIYDMGWYRQAPGKEMELVAAISNSVGSTYADSVKGRFTISRDNAKNTVYLQMNSLKPEDTAVYYCNADSGPIDGRGGYWGQGTQVTVSS”, the entry is “low polyreactivity”; as for “QLQLVESGGGLVQAGGSLRLSCAASGSIFRWYTMGWYRQAPGKERELVAAISSGGSTNYADSVKGRFTISRDNAKNTVYLQMNSLKPEDTAVYYCAARAIYKSKYDYWGQGTQVTVSS”, “high polyreactivity”; as for “QLQLVESGGGLVQAGGSLRLSCAASGSIFYGYAKGWYRQAPGTERELVAAINTSGGSTFYADSVKGRFTISRDNANNTVYLQMNSLKPEDTAVYYCAAERYRYRSTDTMGYWGQGTQVTVSS”, “low polyreactivity”. As for “QLQLVESGGGLVQAGGSLRLSCAASGSILSRYAMGWYRQAPGKEMELVAGITRGGSTNYADSVKGRFTISRDNAKNTVYLHMNSLKPEDTAVYYGAKASRRFLTLGYDYWGQGTQVTVSS”, the entry is “high polyreactivity”. Take “QLQLVESGGGLVQAGGSLRLSCAASGSTFGPYTMGWYRQAPGKERELVATISSGGSTYYADSVKGRFTISRDNAKNTVYLQMNSLKPEDTAVYYCAARYWSIYDYWGQGTQVTVSS”: the “polyreactivity (PSR sort gate)” value is recorded as “low polyreactivity”. Under “QLQLVESGGGLVQAGGSLRLSCAASGSTFPLYAMGWYRQSPGKERELVASITTGGGNTYYADSVKGRFTISRDNAKNTVYLKMNSLKPEDTAVDYCAKPYHIGLSGRRTYDYWGQGTQVTVSS” stands “high polyreactivity”. Under “QLQLVESGGGLVQAGGSLRLSCAASVFTLRGYAMGWYRQATCKERELVADISGGGSTDYADSVKVRFTISRDNAKNTVYLQMNSLKPEDTAVYYCAAYGYLWWEMDYWGQGTQVTVSS” stands “high polyreactivity”. As for “QLQLVESGGGLVQAGGSLRLSCAHSGRTFYVNAIGWSRQAPRKERELVATITDRGGRSYYADSVKGRFTISRDNAKNSVYLQMTSLKPEDTAVYYCAATRWYEVDYWGQGTQVTVSS”, the entry is “low polyreactivity”; as for “QLQLVESGGGLVQAGGSLRLSCAPSGYTFYLYAMGWYRQAPGKARELDAAISNRGGSTYYADSVKGRFTISRDNAKNTVYLQMKSLKPEDTAFYYCAATVGKAGGRYYDRRYYWGQGTQVTVSS”, “high polyreactivity”; as for “QLQLVESGGGLVQAGGSLRLSCASGLTFYWYAMGWYRQAPGKERELVAAINVRGGSTYYADSVKGRFTISRDNAKNTVYLQMNSLKPEDTAGYDCASYYPGFSYRYDYWGQGSQVTVSS”, “low polyreactivity”. As to “QLQLVESGGGLVQAGGSLRLSCASSGFTLTYAMGWDRQAPGKERELVAAISSSGVRTYYADSVKGRFTISRDNAKNTVYLQKNSLKPEDTALYYCNAFIHGSRSYISDYYWGQGTQVTVSS”, the “polyreactivity (PSR sort gate)” value is “high polyreactivity”.

“QLQLVESGGGLVQAGGSLRLSSAASGRTFRWNAMGWYRQAPGKERELVAAISSGGSTYYADSVKGRFTISRDNAKNTVYLQMNSLKPEDTAVYYCAKTSFKYRWSYPVISMDYWGQGTQVTVSS”: the “polyreactivity (PSR sort gate)” value is reported as “high polyreactivity”. As for “QLQLVESGGGLVQAGGSLRLSSAPSGITLQYYAMGWYRQAPGKERELVAAISYRGGRTYYADSVKGRFTISRDNAKNTVYLQMNSLKPEDTAGYYCARRSSKPSSIQYYYWGQGTQVTVSS”, the entry is “high polyreactivity”; as for “QLQLVESGGGLVQAGGSLSLSCAASGSIFNSKRMGWYRPAPGKERELVAAITGGGSTNYADSVKGRFTISRDNAKNTVYLQMNSLKPEDTAVYYCAADYPPTFYYWYEEYEYWGQGTQVTVSS”, “low polyreactivity”; as for “QLQLVESGGRLVQAGGSLRLSCAASGRIFYANAMGWYRQAPGKERELVAAISSGGSTYYADSVKGRFTISRDNAKNTVLLQMNSLKPEDTAVYYCAVYTHKKVRPEYDYWGQGTQVTVSS”, “low polyreactivity”. Consider “QLQLVESGRGLVQAGGSLRLRCAASGRTFNRYTMGGYRQAPGKERELVAAISRGAGTNYADSVKGRFTISRDNAKYTVYLQMKSLKPEDTAVYYCAAGYEIGYRTGRSGNTAHIYYWGQGTQVTVSS”, for which the “polyreactivity (PSR sort gate)” value was “high polyreactivity”. As for “QLQLVESGRGLVQAGGSLRLSCAASGIIFYYNAMGWYRQAPGKERELVARITWRAGSTYYADSVKGRFTISRDNAKNTVYLQMNSLKPEDTAVYYCAARFTTTGPRGYYYWGQGTQVTVSS”, the entry is “high polyreactivity”; as for “QLQLVESRGGLVQAGGSLRLSCASSGFIFKQNAMGWYRQAPGNERELVAAISVSGGSTYYADSVKGRFTISRDNAKNTVYLQMNSLKPEYSAVYYCNTRDRGDVVTGLDYWGQGTQVTVSS”, “low polyreactivity”; as for “QLQLVETGGGLVQAGGSLRLSCAASGRIYYGYAMGWYRPAPGKERELVAAISWSGGSTYYADSVKGRFTISRDNAKNTVYLQMNSLKPEDTAVYYCARDAPYLYRAFDYWGQGTQVTVSS”, “high polyreactivity”. As for “QLQLVETGGGLVQAGGSLRLSCAASGYIFVYNDMGWSRQAPGKERELVAAITFSGGITYYADSVKGRFTISRDNAKNTVYLQMNSLKPEDTAVYYCAAADYWFYYGYYLTMDYWGQGTQVTVSS”, the entry is “low polyreactivity”; as for “QQLQESGGGLVQAGGSLRLSCAASGSISGSVLMGLYRQAPGKEREFVASISLGGNTNYADSVKGRFTISRENGKITVFLQMNSLKPEVAAVYYCAAYISLFETHPYWGQGTQVTVRS”, “high polyreactivity”; as for “QVDLVESAGGLVQAGGSLRLSCAASGSIFPGYTMGWYRQAPGQERELVAAISRRGGSTYYADSVKGRFTISRDNAKNTVYLQMNSLIPEDTAVYYCAIVPDYRFEYWGQGSQVTVSS”, “high polyreactivity”. Under “QVELVDSGGGLVQAGGILRLSCPASGSTIPTNVMGWSRQAPGKERECVAAITWSVGSTYYADSVKGRFTISRDNAKNTVYLQMNSLKPEDTAVYYCTADSQVLSAPDDYWGQGTQVTVSS” stands “low polyreactivity”; under “QVELVESGGGLGQAGGSLRLSCAASGSTFASNTLGWYRQAPGKEREVVAAITQSGGTTYYADSVKGRFTISRDNAKNTVFLQMNSLKPEDTAVYYDYWGQGTQVTVSS”, “low polyreactivity”; under “QVELVESGGGLVQAGGCLRLSCAASGGIFESYAMGWYRRAPGRERELVADSTSGGSTNYADSVKGRFTIAGDNAKNTLYLQMNSLKPEDTAVYYCAKEFYYSVGVNLGDSWGQGTQGTVSS”, “low polyreactivity”. As for “QVELVESGGGLVQAGGILRLSCAASGSTFSIYAMGWYRQGPGKERELVAAISGDGITKYADSVKGRFTISRDNAKNTVYLQMNSLKPEDTAVYYCNAHELTDDGKMDSWGQGTQVTVSS”, the “polyreactivity (PSR sort gate)” value is recorded as “low polyreactivity”.
